What all share (experiment): cytokine release
The target in assay [1] is T1, TPTE peptide on HLA-DRB1*15:01 (human).
T1 peptide: IKKIVHSIVSSFAFG

The target of assay [2] is T2, TPTE peptide on HLA-DRB1*13:01 (human).
T2 peptide: KHFIIYSIPRYVRDLKIQI

Assay [3] addresses T3, TPTE peptide on HLA-DRB1*13:01 (human).
T3 peptide: RRVSENKRRYTRDGF

Assay [4] addresses T4, TPTE peptide on HLA-DRB1*07:01 (human).
T4 peptide: VFVERRQQYFSDLFN

Assay [5] has as its target T5, TPTE peptide on HLA-DRB1*07:01 (human).
T5 peptide: YIPLEYRSISLAIAL

Assay [6] has as its target T6, TPTE peptide on HLA-DRB1*13:01 (human).
T6 peptide: PPRRILFIKHFIIYS

Assay [7] concerns the target T7, TPTE peptide on HLA-DRB1*13:01 (human).
T7 peptide: VLLRVFVERRQQYFS

The target of assay [8] is T8, TPTE peptide on HLA-B*07:02 (human).
T8 peptide: PRWTHLLRL

The target in assay [9] is T9, TPTE peptide on HLA-DQA1*01:03 / HLA-DQB1*06:03 (human).
T9 peptide: VLDNITTDKILIDVF

Assay [10] deals with T10, TPTE peptide on HLA-DQA1*01:02 / HLA-DQB1*06:02 (human).
T10 peptide: VLDNITTDKILIDVF

The target of assay [11] is T11, TPTE peptide on HLA-DQA1*01:03 / HLA-DQB1*06:02 (human).
T11 peptide: VLDNITTDKILIDVF

Assay [12] addresses T12, TPTE peptide on HLA-DRB1*15:01 (human).
T12 peptide: DSKLYIPLEYRSISLAIAL

Assay [13] deals with T13, TPTE peptide on HLA-DRB1*15:01 (human).
T13 peptide: DVVYIFFDIKLLRNI

Assay [14] deals with T14, TPTE peptide on HLA-DRB1*15:01 (human).
T14 peptide: LFNILDTAIIVILLL

Assay [15] deals with T15, TPTE peptide on HLA-DRB1*15:01 (human).
T15 peptide: RRQQYFSDLFNILDT

B1: TCRCD4-TPT#57 (TCR, V domains shown)
Valpha: AQSVSQHNHHVILSEAASLELGCNYSYGGTVNLFWYVQYPGQHLQLLLKYFSGDPLVKGIKGFEAEFIKSKFSFNLRKPSVQWSDTAEYFCAVNARDNAGKSTFGDGTTLTVKP
Vbeta: KAGVTQTPRYLIKTRGQQVTLSCSPISGHRSVSWYQQTPGQGLQFLFEYFSETQRNKGNFPGRFSGRQFSNSRSEMNVSTLELGDSALYLCASRGEPSSYEQYFGPGTRLTVT
Regarding B1, the binding result in assay [1] is “recognises”.

B2: TCRCD4-TPT#77 (TCR, V domains shown)
Valpha: AQKITQTQPGMFVQEKEAVTLDCTYDTSDPSYGLFWYKQPSSGEMIFLIYQGSYDQQNATEGRYSLNFQKARKSANLVISASQLGDSAMYFCAMREGLAKTSYDKVIFGPGTSLSVIP
Vbeta: GAVVSQHPSWVICKSGTSVKIECRSLDFQATTMFWYRQFPKQSLMLMATSNEGSKATYEQGVEKDKFLINHASLTLSTLTVTSAHPEDSSFYICSAPGTGHSAGELFFGEGSRLTVL
On to B2, for which the binding result in assay [2] was “recognises”.

B3: TCRCD4-TPT#78 (TCR, V domains shown)
Valpha: AQSVTQLDSQVPVFEEAPVELRCNYSSSVSVYLFWYVQYPNQGLQLLLKYLSGSTLVKGINGFEAEFNKSQTSFHLRKPSVHISDTAEYFCAVGPNNFNKFYFGSGTKLNVKP
Vbeta: EPEVTQTPSHQVTQMGQEVILRCVPISNHLYFYWYRQILGQKVEFLVSFYNNEISEKSEIFDDQFSVERPDGSNFTLKIRSTKLEDSAMYFCASSPVGGYNSPLHFGNGTRLTVT
For B3, in [3], the binding result is “recognises”.

B4: TCRCD4-TPT#9 (TCR, V domains shown)
Valpha: QQQVKQSPQSLIVQKGGISIINCAYENTAFDYFPWYQQFPGKGPALLIAIRPDVSEKKEGRFTISFNKSAKQFSLHIMDSQPGDSATYFCAASFYTGNQFYFGTGTSLTVIP
Vbeta: DTAVSQTPKYLVTQMGNDKSIKCEQNLGHDTMYWYKQDSKKFLKIMFSYNNKELIINETVPNRFSPKSPDKAHLNLHINSLELGDSAVYFCASSQEALGGGYGYTFGSGTRLTVV
For B4, the binding result in [4] and in assay [5] was “recognises” throughout.

B5: TCRCD4-TPT#82 (TCR, V domains shown)
Valpha: AQTVTQSQPEMSVQEAETVTLSCTYDTSESDYYLFWYKQPPSRQMILVIRQEAYKQQNATENRFSVNFQKAAKSFSLKISDSQLGDAAMYFCAYRSAGLLLTFGGGTRLMVKP
Vbeta: DGGITQSPKYLFRKEGQNVTLSCEQNLNHDAMYWYRQDPGQGLRLIYYSQIVNDFQKGDIAEGYSVSREKKESFPLTVTSAQKNPTAFYLCASSKAPGQGNTQGWEQYFGPGTRLTVT
Regarding B5, the binding result in assay [6] is on record as “recognises”.

B6: TCRCD4-TPT#59 (TCR, V domains shown)
Valpha: ELKVEQNPLFLSMQEGKNYTIYCNYSTTSDRLYWYRQDPGKSLESLFVLLSNGAVKQEGRLMASLDTKARLSTLHITAAVHDLSATYFCAVDNEFYFGTGTSLTVIP
Vbeta: DTGVSQDPRHKITKRGQNVTFRCDPISEHNRLYWYRQTLGQGPEFLTYFQNEAQLEKSRLLSDRFSAERPKGSFSTLEIQRTEQGDSAMYLCASSLLGAGNIQYFGAGTRLSVL
Take B6: the binding result in [7] is recorded as “recognises”.

B7: TCRCD8-TPT#35/2 (TCR, V domains shown)
Valpha: AQKVTQAQTEISVVEKEDVTLDCVYETRDTTYYLFWYKQPPSGELVFLIRRNSFDEQNEISGRYSWNFQKSTSSFNFTITASQVVDSAVYFCALIEAAAGNKLTFGGGTRVLVKP
Vbeta: NAGVTQTPKFRVLKTGQSMTLLCAQDMNHEYMYWYRQDPGMGLRLIHYSVGEGTTAKGEVPDGYNVSRLKKQNFLLGLESAAPSQTSVYFCASSDGYGYTFGSGTRLTVV
As to B7, the binding result in assay [8] is on record as “recognises”.

B8: TCRCD4-TPT#76 (TCR, V domains shown)
Valpha: AQSVTQPDIHITVSEGASLELRCNYSYGATPYLFWYVQSPGQGLQLLLKYFSGDTLVQGIKGFEAEFKRSQSSFNLRKPSVHWSDAAEYFCAVGAFTRGGSEKLVFGKGMKLTVNP
Vbeta: DGGITQSPKYLFRKEGQNVTLSCEQNLNHDAMYWYRQDPGQGLRLIYYSQIVNDFQKGDIAEGYSVSREKKESFPLTVTSAQKNPTAFYLCATGSYVGYEQYFGPGTRLTVT
Consider B8, for which the binding result in assay [9], in assay [10] and in [11] was “recognises” each time.

B9: TCRCD4-TPT#52 (TCR, V domains shown)
Valpha: AQSVTQPDIHITVSEGASLELRCNYSYGATPYLFWYVQSPGQGLQLLLKYFSGDTLVQGIKGFEAEFKRSQSSFNLRKPSVHWSDAAEYFCAVGAQGAQKLVFGQGTRLTINP
Vbeta: NAGVTQTPKFQVLKTGQSMTLQCAQDMNHNSMYWYRQDPGMGLRLIYYSASEGTTDKGEVPNGYNVSRLNKREFSLRLESAAPSQTSVYFCASSEAGGSSFEQYFGPGTRLTVT
Turning to B9, the binding result in assay [12] is given as “recognises”.

B10: TCRCD4-TPT#79 (TCR, V domains shown)
Valpha: AQTVTQSQPEMSVQEAETVTLSCTYDTSESDYYLFWYKQPPSRQMILVIRQEAYKQQNATENRFSVNFQKAAKSFSLKISDSQLGDAAMYFCAYRSYNAGNMLTFGGGTRLMVKP
Vbeta: KAGVTQTPRYLIKTRGQQVTLSCSPISGHRSVSWYQQTPGQGLQFLFEYFSETQRNKGNFPGRFSGRQFSNSRSEMNVSTLELGDSALYLCASSDTSGGGGEQFFGPGTRLTVL
On to B10, for which the binding result in assay [13], in [14] and in assay [15] was “recognises” in each case.

The values above are taken from patent US20190060430A1 (published 2019).
